Test results from patent US20120107330A1 (published 2012).
Like-named read-outs stand apart in the source and are kept apart here. Ends that are not written are not given here.

Columns and labels:
[1] = biological target: human TNFR1 (recombinant, R&D Systems cat no. 636-R1/CF, biotinylated) (human) (UniProt P19438); experiment: BIAcore, human TNFR1 on SA chip, second injection after DOM1h-574-16 as competitor
[2] = biological target: T1, human TNFR1 (recombinant, R&D Systems cat no. 636-R1/CF, biotinylated) (human, UniProt P19438 30-211, limits assumed, biotinylated with EZ-Link NHS-LC-LC-biotin); experiment: BIAcore, biotinylated human TNFR1 on SA chip, purified dAb injected (concentration not given)
T1 construct: it is not tied to the BIAcore reagent; also called p55; hTNFR1
T1 sequence (looked up): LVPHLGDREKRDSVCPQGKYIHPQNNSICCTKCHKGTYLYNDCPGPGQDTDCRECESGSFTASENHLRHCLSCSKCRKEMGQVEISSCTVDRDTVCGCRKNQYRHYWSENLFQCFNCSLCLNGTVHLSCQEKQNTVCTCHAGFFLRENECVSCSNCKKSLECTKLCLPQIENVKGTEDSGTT

[3] = biological target: T2, peptide A3 (negative control fragment of human TNFR1) (human, cysteine pairing not given here; also: biotinylated, position not given here); experiment: BIAcore, biotinylated peptide A3 on SA chip
T2 construct: also called control peptide
T2 peptide: SGSGNDCPGPGQDTDCREC

[4] = biological target: T3, peptide E5 (overlapping domain-3 peptide of human TNFR1) (human, also: biotinylated, position not given here); experiment: BIAcore, biotinylated peptide E5 on SA chip
T3 construct: also called peptide 3
T3 peptide: SGSGNQYRHYWSENLFQCF

[5] = biological target: T4, peptide D2 (domain-1 peptide of human TNFR1) (human, cysteine pairing not given here; also: biotinylated, position not given here); experiment: BIAcore, biotinylated peptide D2 on SA chip
T4 construct: also called peptide 1
T4 peptide: SGSGNSICCTKCHKGTYLY

[6] = biological target: T5, peptide D5 (domain-3 peptide of human TNFR1) (human, also: biotinylated, position not given here); experiment: BIAcore, biotinylated peptide D5 on SA chip
T5 construct: also called peptide 2
T5 peptide: SGSGCRKNQYRHYWSENLF

[7] = biological target: T1, human TNFR1 (recombinant, R&D Systems …); experiment: BIAcore, human TNFR1
[8] = biological target: T1, human TNFR1 (recombinant, R&D Systems …); experiment: BIAcore, human TNFR1 on SA chip
From the text: (§1) A significant advantage for an anti-TNFR1 dAb would be cross-reactivity between different species. Given the limited conservation of the sequence of the extracellular domain of TNFR1 between mouse, dog, Cynomologus monkey and human (FIG. 6), it would be exceptional for any antibody or single variable domain to recognize TNFR1 of these different species at similar affinities. […] For each of these experiments the TNFR1 was biotinylated using EZ-Link NHS-LC-LC-biotin (Pierce cat no. 21343), according to the manufacturer's instructions, followed by binding of the biotinylated TNFR1 to a Streptavidin-coated BIAcore chip. […] Examples for binding to the different species are shown in FIGS. 7 and 8, with a summary of the results in Table 2.

[9] = biological target: T3, peptide E5 (overlapping domain-3 …); experiment: BIAcore, biotinylated peptide E5 on SA chip, dAb at 2.5 µM
[10] = biological target: T6, human TNFR1 on MRC-5 cells (human, UniProt P19438 30-455); experiment: cell-based or functional assay
T6 sequence (looked up): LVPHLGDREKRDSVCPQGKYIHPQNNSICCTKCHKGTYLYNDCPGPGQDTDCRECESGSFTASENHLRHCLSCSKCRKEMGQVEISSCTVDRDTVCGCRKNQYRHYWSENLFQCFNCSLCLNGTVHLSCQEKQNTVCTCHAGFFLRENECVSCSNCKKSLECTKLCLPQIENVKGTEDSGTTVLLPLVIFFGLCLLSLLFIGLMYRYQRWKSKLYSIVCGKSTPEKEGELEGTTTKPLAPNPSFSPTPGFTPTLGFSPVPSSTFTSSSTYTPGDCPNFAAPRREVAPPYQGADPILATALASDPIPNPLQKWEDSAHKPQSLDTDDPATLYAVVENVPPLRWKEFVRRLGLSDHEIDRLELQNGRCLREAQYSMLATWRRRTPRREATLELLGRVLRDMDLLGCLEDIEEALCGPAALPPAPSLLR

[11] = biological target: T5, peptide D5 (domain-3 peptide of human …); experiment: BIAcore, biotinylated peptide D5 on SA chip, dAb at 2.5 µM
[12] = biological target: T7, mouse TNFR1 (recombinant, R&D Systems cat no. 425-R1-050/CF, biotinylated) (mouse, UniProt P25118 22-212, biotinylated with EZ-Link NHS-LC-LC-biotin); experiment: BIAcore, mouse TNFR1 on SA chip
T7 construct: also called murine TNFR1; biotinylated mouse TNFR1
T7 sequence (looked up): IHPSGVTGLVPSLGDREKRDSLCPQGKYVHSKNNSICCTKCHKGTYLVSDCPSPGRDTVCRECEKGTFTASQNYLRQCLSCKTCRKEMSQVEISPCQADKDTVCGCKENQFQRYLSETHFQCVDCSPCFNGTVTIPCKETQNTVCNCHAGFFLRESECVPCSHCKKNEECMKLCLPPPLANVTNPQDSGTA
From the text: as §1

[13] = biological target: T2, peptide A3 (negative control fragment …); experiment: BIAcore, biotinylated peptide A3 on SA chip
[14] = biological target: T4, peptide D2 (domain-1 peptide of human …); experiment: BIAcore, biotinylated peptide D2 on SA chip, dAb at 2.5 µM
[15] = biological target: dog TNFR1 (recombinant, R&D Systems cat no. 4017-TR-025/CF, biotinylated) (dog); experiment: BIAcore, dog TNFR1 on SA chip
[16] = biological target: T1, human TNFR1 (recombinant, R&D Systems …); experiment: BIAcore, human TNFR1 on SA chip; remark: listed apart in the source
[17] = biological target: T3, peptide E5 (overlapping domain-3 …); experiment: BIAcore, biotinylated peptide E5 on SA chip
[18] = biological target: T5, peptide D5 (domain-3 peptide of human …); experiment: BIAcore, biotinylated peptide D5 on SA chip
[19] = biological target: T8, TNFR1-Fc fusion (R&D Systems Cat #372-RI) (human, UniProt P19438 30-211); experiment: receptor binding assay: TNFR1-Fc on anti-IgG beads, dAb titrated, blocked ligand TNFα detected with biotinylated anti-TNFα and fluorescent streptavidin (FMAT)
T8 construct: range 30-211; also called TNFR1-containing beads; not shown: Human IgG1 (Pro100-Lys330)
Procedure: The potency of the dAbs was determined against human TNFR1 in a receptor binding assay. This assay measures the binding of TNF-alpha to TNFR1 and the ability of soluble dAb to block this interaction. The TNFR1-Fc fusion (R&D Systems, Cat#372-RI.) is captured on a bead pre-coated with goat anti-human IgG (Spherotech, Cat#HUP-60-S). The receptor coated beads are incubated with TNF-alpha (10 ng/ml, Peprotech Cat#300-01A), dAb, biotin conjugated anti-TNF-alpha (Hycult Biotechnology Cat#HM2027.) and streptavidin Alexa Fluor 647 (Molecular Probes, (Invitrogen) Cat#32357) in a black sided clear bottomed 384 well plate. After 6 hours the plate is read on the ABI 8200 Cellular Detection system and bead associated fluorescence determined. If the dAb blocks TNF-alpha binding to TNFR1 the fluorescent intensity will be reduced.

[20] = biological target: T8, TNFR1-Fc fusion (R&D Systems Cat …); experiment: receptor binding assay: TNFR1-Fc on beads incubated with the dAb, then with TNFα (blocked ligand); % inhibition of TNFα binding to TNFR1
[21] = biological target: T4, peptide D2 (domain-1 peptide of human …); experiment: BIAcore, biotinylated peptide D2 on SA chip
[22] = biological target: T2, peptide A3 (negative control fragment …); experiment: BIAcore, biotinylated peptide A3 on SA chip

Molecule: mAb Clone 4.12 (Invitrogen, cat. no. Zymed 33-0100) (antibody)
- decrease of binding (RUs) in the presence of the competitor [1]: 20%

B1: DOM1h-549 (other)
VH: EVQLLESGGGLVQPGGSLRLSCAASGFTFVDYEMHWVRQAPGKGLEWVSSISESGTTTYYADSVKGRFTISRDNSKNTLYLQMNSLRAEDTAVYYCAKRRFSASTFDYWGQGTLVTVSS
notes: VH dAb
- binding result [2]: binds

B2: DOM1m-21-23 (other)
VH: EVQLLESGGGLVQPGGSLRLSCAASGFTFNRYSMGWLRQAPGKGLEWVSRIDSYGRGTYYEDPVKGRFSISRDNSKNTLYLQMNSLRAEDTAVYYCAKISQFGSNAFDYWGQGTQVTVSS
notes: VH dAb; also called DOM1m-12-23 [sic]
- binding result [3]: no binding (tested: 2.5 µM)
- binding result [4]: no binding (tested: 2.5 µM)
- binding result [5]: no binding (tested: 2.5 µM)
- binding result [6]: no binding (tested: 2.5 µM)

B3: DOM1h-574-16 (other)
VH: EVQLLESGGGLVQPGGSLRLSCAASGFTFVKYSMGWVRQAPGKGPEWVSQISNTGDRTYYADSVKGRFTISRDNSKNTLYLQMNSLRAEDTAVYYCAIYTGRWEPFDYWGQGTLVTVSS
notes: VH dAb; also called DOM1h-57-16 [sic]; the DOM0100 dAb
- Kd [7]: 1 nM
- Kd [8]: 1 nM
- binding result [9]: binds
- MRC-5 ND50 (TNFα-mediated IL-8 release) [10]: 8 nM
- binding result [11]: binds
- Kd [12]: 20 nM
- binding result [13]: no binding (tested: 2.5 µM)
- binding result [14]: binds
- Kd [15]: 20 nM

B4: DOM1h-509 (other)
VH: EVQLLESGGGLVQPGGSLRLSCAASGFTFSQYRMHWVRQAPGKSLEWVSSIDTRGSSTYYADPVKGRFTISRDNSKNTLYLQMNSLRAEDTAVYYCAKAVTMFSPFFDYWGQGTLVTVSS
notes: VH domain antibody (dAb)
- binding result [2]: binds

B5: DOM1h-543 (other)
VH: EVQLLESGGGLVQPGGSLRLSCAASGFTFMRYRMHWVRQAPGKGLEWVSSIDSNGSSTYYADSVKGRFTISRDNSKNTLYLQMNSLRAEDTAVYYCAKDRTERSPVFDYWGQGTLVTVSS
notes: VH dAb
- binding result [16]: binds

B6: DOM1h-131-511 (other)
VH: EVQLLESGGGLVQPGGSLRLSCAASGFTFAHETMVWVRQAPGKGLEWVSHIPPVGQDPFYADSVKGRFTISRDNSKNTLYLQMNSLRAEDTAVYYCALLPKRGPWFDYWGQGTLVTVSS
notes: also called control dAb
- binding result [17]: no binding (tested: 2.5 µM)
- binding result [18]: no binding (tested: 2.5 µM)
- IC50 (read off the curve) [19]: ~0.1 nM
- IC50 (read off the curve) [20]: ~0.1 nM
- binding result [21]: no binding (tested: 2.5 µM)
- binding result [22]: no binding (tested: 2.5 µM)
